How the values were obtained:
Assay in all cases: SPR
[1] = target: human IL-2Rβ-Fc chimera (human) (UniProt P14784)
[2] = target: heterodimeric IL-2Rαβ (human IL-2Rα-Fc chimera and human IL-2Rβ-Fc chimera captured together) (human) (UniProt P01589)
[3] = target: human IL-2Rα-Fc chimera (human) (UniProt P01589)

Chain of UniProt P14784 (P14784 27-240, change not shown): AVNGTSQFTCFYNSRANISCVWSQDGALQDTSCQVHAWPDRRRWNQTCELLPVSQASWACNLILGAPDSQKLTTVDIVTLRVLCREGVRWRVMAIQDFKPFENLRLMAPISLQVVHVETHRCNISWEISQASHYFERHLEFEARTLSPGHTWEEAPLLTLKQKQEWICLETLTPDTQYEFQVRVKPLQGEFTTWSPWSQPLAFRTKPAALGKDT

**Q.** What does the source list for “NKTR-358, a PEGylated form of rhIL-2 (aldesleukin sequence) (from UniProt P60568 21-153) (ligand)”?
**A.** Kd [1]: 88 µM; Kd [2]: 1.7 µM; Kd [3]: 7.3 µM

From paper PMC8141531
